Biological target: T1, human Retinoblastoma-1 (RB) pocket domain (human, UniProt P06400 373-771)
T1 chain: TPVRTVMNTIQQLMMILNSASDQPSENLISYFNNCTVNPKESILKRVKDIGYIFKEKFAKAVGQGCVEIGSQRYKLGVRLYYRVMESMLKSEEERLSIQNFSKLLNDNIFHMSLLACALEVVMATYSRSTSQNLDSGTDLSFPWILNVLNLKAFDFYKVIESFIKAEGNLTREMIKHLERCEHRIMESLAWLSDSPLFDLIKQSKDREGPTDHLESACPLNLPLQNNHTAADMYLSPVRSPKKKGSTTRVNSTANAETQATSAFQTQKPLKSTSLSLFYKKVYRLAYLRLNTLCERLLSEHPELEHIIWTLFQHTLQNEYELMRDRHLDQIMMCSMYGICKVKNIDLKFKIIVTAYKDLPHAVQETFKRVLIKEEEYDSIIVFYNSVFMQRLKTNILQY
Experiment: SPR

Binder YIEEVFTPLVLKCKELK [LXCXE peptide derived from TpGcpE (TpMuguga_02g00667)] has a Kd of 22.4 µM.

B1: full-length E2F1, purified, recombinant (natural protein)
chain: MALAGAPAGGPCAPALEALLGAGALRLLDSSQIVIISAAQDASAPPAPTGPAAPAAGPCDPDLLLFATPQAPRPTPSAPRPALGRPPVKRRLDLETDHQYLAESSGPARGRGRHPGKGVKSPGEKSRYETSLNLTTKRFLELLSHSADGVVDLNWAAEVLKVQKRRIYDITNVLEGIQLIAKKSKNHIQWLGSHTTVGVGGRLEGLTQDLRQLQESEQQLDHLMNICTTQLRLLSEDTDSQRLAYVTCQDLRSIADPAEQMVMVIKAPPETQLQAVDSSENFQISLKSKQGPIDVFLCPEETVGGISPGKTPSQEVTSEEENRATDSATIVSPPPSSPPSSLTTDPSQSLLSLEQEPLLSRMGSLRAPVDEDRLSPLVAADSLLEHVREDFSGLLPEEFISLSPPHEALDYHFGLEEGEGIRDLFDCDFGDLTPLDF
B1 showed a Kd of 0.0331 µM.
